What was measured:
[1] = molecular target: T1, human transferrin receptor (recombinant, for surface plasmon resonance) (human, UniProt P02786 89-760); assay: SPR 25C
T1 construct: also called huTfR; human transferrin receptor-biotinylated

[2] = molecular target: T2, Her2 ECD (amino acids 1 to 629 of matured HER2 with C-terminal avi-tag and His-tag) (human, UniProt P04626 23-652); assay: SPR, Ab captured, Her2 analyte;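 also: ProteOn XPR36 SPR, rate constants from simultaneous fit of association and dissociation sensorgrams to a 1:1 Langmuir model, buffer-channel referenced, KD taken as koff/kon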
T2 construct: also called purified Her2

T1 sequence (P02786 89-760 limits assumed): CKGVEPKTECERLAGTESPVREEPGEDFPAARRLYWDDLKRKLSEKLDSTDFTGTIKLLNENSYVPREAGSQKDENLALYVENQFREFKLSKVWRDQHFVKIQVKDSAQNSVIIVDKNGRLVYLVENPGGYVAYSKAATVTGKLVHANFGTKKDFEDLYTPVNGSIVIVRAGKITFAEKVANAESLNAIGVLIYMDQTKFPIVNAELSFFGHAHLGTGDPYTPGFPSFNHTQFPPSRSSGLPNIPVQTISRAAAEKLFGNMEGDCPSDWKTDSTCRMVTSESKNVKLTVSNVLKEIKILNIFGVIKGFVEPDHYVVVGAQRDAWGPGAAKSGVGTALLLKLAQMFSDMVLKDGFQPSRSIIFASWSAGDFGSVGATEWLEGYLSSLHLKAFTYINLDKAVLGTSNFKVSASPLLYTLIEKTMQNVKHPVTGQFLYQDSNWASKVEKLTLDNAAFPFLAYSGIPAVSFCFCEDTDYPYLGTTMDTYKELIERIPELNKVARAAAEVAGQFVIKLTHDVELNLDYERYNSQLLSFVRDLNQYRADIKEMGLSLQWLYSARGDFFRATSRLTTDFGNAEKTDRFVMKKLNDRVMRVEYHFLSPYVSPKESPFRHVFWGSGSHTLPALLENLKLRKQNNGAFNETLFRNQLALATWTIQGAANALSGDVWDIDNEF

Binder | koff [1] [s⁻¹] | Kd [2] [nM] | koff [2] [s⁻¹] | kon [2] [M⁻¹ s⁻¹]
2/99 VH5/VL17 (antibody, V domains shown) VH: QSMEETGGGLIQPGGSLRLSCAASGFSLSSYAMSWVRQAPGKGLEWVGYIWSGGSTDYADSVKGRFTISRDNSKNTLYLQMNSLRAEDTAVYYCARRYGTSYPDYGDANGFDPWGPGTLVTVSS VL: AIQLTQSPSSLSASVGDRVTITCRASQSISSYLAWYQQKPGKAPKLLIYRASTLASGVPSRFSGSGSGTDFTLTISSLQPEDFATYYCQQTYSSSNVDNTFGGGTKVEIK | 0.00745 | – | – | –
2/99 VH15/VL17 (antibody, V domains shown) VH: QQLQESGPGLVKPSETLSLTCTVSGFSLSSYAMSWVRQPPGKGLEWIGYIWSGGSTDYNPSLKSRVTISVDTSKNQVSLKLSSVTAADTAVYYCARRYGTSYPDYGDANGFDPWGQGTLVTVSS VL: AIQLTQSPSSLSASVGDRVTITCRASQSISSYLAWYQQKPGKAPKLLIYRASTLASGVPSRFSGSGSGTDFTLTISSLQPEDFATYYCQQTYSSSNVDNTFGGGTKVEIK | 0.00169 | – | – | –
2/99 VH6/VL17 (antibody, V domains shown) VH: QQLVETGGGLIQPGGSLRLSCAASGFSLSSYAMSWVRQAPGKGLEWIGYIWSGGSTDYADSVKGRFTISRDNSKNTLYLQMNSLRAEDTAVYYCARRYGTSYPDYGDANGFDPWGQGTLVTVSS VL: AIQLTQSPSSLSASVGDRVTITCRASQSISSYLAWYQQKPGKAPKLLIYRASTLASGVPSRFSGSGSGTDFTLTISSLQPEDFATYYCQQTYSSSNVDNTFGGGTKVEIK | 0.00717 | – | – | –
2/99 VH7/VL17 (antibody, V domains shown) VH: QQLVETGGGLIQPGGSLRLSCAASGFSLSSYAMSWVRQAPGKGLEWIGYIWSGGSTDYASWAKGRFTISRDNSKNTLYLQMNSLRAEDTAVYYCARRYGTSYPDYGDANGFDPWGQGTLVTVSS VL: AIQLTQSPSSLSASVGDRVTITCRASQSISSYLAWYQQKPGKAPKLLIYRASTLASGVPSRFSGSGSGTDFTLTISSLQPEDFATYYCQQTYSSSNVDNTFGGGTKVEIK | 0.00187 | – | – | –
2/99 VH13/VL17 (antibody, V domains shown) VH: QVQLQESGPGLVKPSETLSLTCTVSGFSLSSYAMSWIRQPPGKGLEWIGYIWSGGSTDYNPSLKSRVTISVDTSKNQVSLKLSSVTAADTAVYYCARRYGTSYPDYGDANGFDPWGQGTLVTVSS VL: AIQLTQSPSSLSASVGDRVTITCRASQSISSYLAWYQQKPGKAPKLLIYRASTLASGVPSRFSGSGSGTDFTLTISSLQPEDFATYYCQQTYSSSNVDNTFGGGTKVEIK | 0.00339 | – | – | –
2/99 VH16/VL17 (antibody, V domains shown) VH: QQLQESGPGLVKPSETLSLTCTVSGFSLSSYAMSWVRQPPGKGLEWIGYIWSGGSTDYNPSLKSRVTISVDTSKNQVSLKLSSVTAADTAVYYCARRYGTSYPDYGDANGFDPWGPGTLVTVSS VL: AIQLTQSPSSLSASVGDRVTITCRASQSISSYLAWYQQKPGKAPKLLIYRASTLASGVPSRFSGSGSGTDFTLTISSLQPEDFATYYCQQTYSSSNVDNTFGGGTKVEIK | 0.00166 | – | – | –
2/99 VH19/VL17 (antibody, V domains shown) VH: QSMQESGPGLVKPSQTLSLTCTVSGFSLSSYAMSWIRQHPGKGLEWIGYIWSGGSTDYAPSLKSRVTISVDTSKNQFSLKLSSVTAADTAVYYCARRYGTSYPDYGDANGFDPWGQGTLVTVSS VL: AIQLTQSPSSLSASVGDRVTITCRASQSISSYLAWYQQKPGKAPKLLIYRASTLASGVPSRFSGSGSGTDFTLTISSLQPEDFATYYCQQTYSSSNVDNTFGGGTKVEIK | 0.001 | – | – | –
2/99 VH17/VL17 (antibody, V domains shown) VH: QQLQESGPGLVKPSETLSLTCTVSGFSLSSYAMSWVRQPPGKGLEWIGYIWSGGSTDYNPSLKSRVTISKDTSKNQVSLKLSSVTAADTAVYYCARRYGTSYPDYGDANGFDPWGPGTLVTVSS VL: AIQLTQSPSSLSASVGDRVTITCRASQSISSYLAWYQQKPGKAPKLLIYRASTLASGVPSRFSGSGSGTDFTLTISSLQPEDFATYYCQQTYSSSNVDNTFGGGTKVEIK | 0.000988 | – | – | –
2/99 VH12/VL17 (antibody, V domains shown) VH: QVQLQESGPGLVKPSETLSLTCTVSGFSLSSYAMSWIRQPPGKGLEWIGYIWSGGSTDYNPSLKSRVTISVDTSKNQFSLKLSSVTAADTAVYYCARRYGTSYPDYGDANGFDPWGQGTLVTVSS VL: AIQLTQSPSSLSASVGDRVTITCRASQSISSYLAWYQQKPGKAPKLLIYRASTLASGVPSRFSGSGSGTDFTLTISSLQPEDFATYYCQQTYSSSNVDNTFGGGTKVEIK | 0.00727 | – | – | –
2/99 VH9/VL17 (antibody, V domains shown) VH: QQLLESGGGLVQPGGSLRLSCAASGFTFSSYAMSWVRQAPGKGLEWVGYIWSGGSTDYADSVKGRFTISRDNSKNTLYLQMNSLRAEDTAVYYCAKRYGTSYPDYGDANGFDPWGQGTLVTVSS VL: AIQLTQSPSSLSASVGDRVTITCRASQSISSYLAWYQQKPGKAPKLLIYRASTLASGVPSRFSGSGSGTDFTLTISSLQPEDFATYYCQQTYSSSNVDNTFGGGTKVEIK | 0.00425 | – | – | –
2/99 VH11/VL17 (antibody, V domains shown) VH: QQLLESGGGLVQPGGSLRLSCAASGFSLSSYAMSWVRQAPGKGLEWVGYIWSGGSTDYADSVKGRFTISRDNSKNTLYLQMNSLRAEDTAVYYCARRYGTSYPDYGDANGFDPWGQGTLVTVSS VL: AIQLTQSPSSLSASVGDRVTITCRASQSISSYLAWYQQKPGKAPKLLIYRASTLASGVPSRFSGSGSGTDFTLTISSLQPEDFATYYCQQTYSSSNVDNTFGGGTKVEIK | 0.00755 | – | – | –
2/99 VH8/VL17 (antibody, V domains shown) VH: QQLVETGGGLIQPGGSLRLSCAASGFSLSSYAMSWVRQAPGKGLEWIGYIWSGGSTDYASWAKGRFTISKTSTTLYLQMNSLRAEDTAVYYCARRYGTSYPDYGDANGFDPWGQGTLVTVSS VL: AIQLTQSPSSLSASVGDRVTITCRASQSISSYLAWYQQKPGKAPKLLIYRASTLASGVPSRFSGSGSGTDFTLTISSLQPEDFATYYCQQTYSSSNVDNTFGGGTKVEIK | 0.00112 | – | – | –
2/99 VH18/VL17 (antibody, V domains shown) VH: QVQLQESGPGLVKPSQTLSLTCTVSGFSLSSYAMSWIRQHPGKGLEWIGYIWSGGSTDYAPSLKSRVTISVDTSKNQFSLKLSSVTAADTAVYYCARRYGTSYPDYGDANGFDPWGQGTLVTVSS VL: AIQLTQSPSSLSASVGDRVTITCRASQSISSYLAWYQQKPGKAPKLLIYRASTLASGVPSRFSGSGSGTDFTLTISSLQPEDFATYYCQQTYSSSNVDNTFGGGTKVEIK | 0.0053 | – | – | –

Further lines, results first:

koff [1] [s⁻¹] | Kd [2] [nM] | koff [2] [s⁻¹] | kon [2] [M⁻¹ s⁻¹] | Binder
0.000997 | – | – | – | 2/99 VH21/VL17 (antibody, V domains shown) VH: QSMQESGPGLVKPSQTLSLTCTVSGFSLSSYAMSWIRQHPGKGLEWIGYIWSGGSTDYASWAKSRVTISVDTSKNQVSLKLSSVTAADTAVYYCARRYGTSYPDYGDANGFDPWGQGTLVTVSS VL: AIQLTQSPSSLSASVGDRVTITCRASQSISSYLAWYQQKPGKAPKLLIYRASTLASGVPSRFSGSGSGTDFTLTISSLQPEDFATYYCQQTYSSSNVDNTFGGGTKVEIK
0.000938 | – | – | – | 2/99 VH22/VL17 (antibody, V domains shown) VH: QSMQESGPGLVKPSQTLSLTCTVSGFSLSSYAMSWVRQHPGKGLEWIGYIWSGGSTDYASWAKSRVTISVDTSKNQVSLKLSSVTAADTAVYYCARRYGTSYPDYGDANGFDPWGQGTLVTVSS VL: AIQLTQSPSSLSASVGDRVTITCRASQSISSYLAWYQQKPGKAPKLLIYRASTLASGVPSRFSGSGSGTDFTLTISSLQPEDFATYYCQQTYSSSNVDNTFGGGTKVEIK
0.00457 | – | – | – | 2/99 VH20/VL17 (antibody, V domains shown) VH: QSMQESGPGLVKPSQTLSLTCTVSGFSLSSYAMSWIRQHPGKGLEWIGYIWSGGSTDYAPSLKSRVTISVDTSKNQVSLKLSSVTAADTAVYYCARRYGTSYPDYGDANGFDPWGQGTLVTVSS VL: AIQLTQSPSSLSASVGDRVTITCRASQSISSYLAWYQQKPGKAPKLLIYRASTLASGVPSRFSGSGSGTDFTLTISSLQPEDFATYYCQQTYSSSNVDNTFGGGTKVEIK
– | 3.66 | 0.00187 | 511000 | Pertuzumab HC x Pertuzumab (Tras.L3) G32A LC (antibody, V domains shown) VH: EVQLVESGGGLVQPGGSLRLSCAASGFTFTDYTMDWVRQAPGKGLEWVADVNPNSGGSIYNQRFKGRFTLSVDRSKNTLYLQMNSLRAEDTAVYYCARNLGPSFYFDYWGQGTLVTVSS VL: DIQMTQSPSSLSASVGDRVTITCKASQDVSIAVAWYQQKPGKAPKLLIYSASYRYTGVPSRFSGSGSGTDFTLTISSLQPEDFATYYCQQHYTTPPTFGQGTKVEIK
– | 4.62 | 0.00211 | 457000 | Pertuzumab HC x Pertuzumab (Tras.L3) K24R LC (antibody, V domains shown) VH: EVQLVESGGGLVQPGGSLRLSCAASGFTFTDYTMDWVRQAPGKGLEWVADVNPNSGGSIYNQRFKGRFTLSVDRSKNTLYLQMNSLRAEDTAVYYCARNLGPSFYFDYWGQGTLVTVSS VL: DIQMTQSPSSLSASVGDRVTITCRASQDVSIGVAWYQQKPGKAPKLLIYSASYRYTGVPSRFSGSGSGTDFTLTISSLQPEDFATYYCQQHYTTPPTFGQGTKVEIK
– | 6.91 | 0.00247 | 358000 | Pertuzumab HC x Pertuzumab (Tras.L3) G66R LC (antibody, V domains shown) VH: EVQLVESGGGLVQPGGSLRLSCAASGFTFTDYTMDWVRQAPGKGLEWVADVNPNSGGSIYNQRFKGRFTLSVDRSKNTLYLQMNSLRAEDTAVYYCARNLGPSFYFDYWGQGTLVTVSS VL: DIQMTQSPSSLSASVGDRVTITCKASQDVSIGVAWYQQKPGKAPKLLIYSASYRYTGVPSRFSGSRSGTDFTLTISSLQPEDFATYYCQQHYTTPPTFGQGTKVEIK
– | 4.06 | 0.00175 | 431000 | Pertuzumab HC x Pertuzumab (Tras.L3) I31T LC (antibody, V domains shown) VH: EVQLVESGGGLVQPGGSLRLSCAASGFTFTDYTMDWVRQAPGKGLEWVADVNPNSGGSIYNQRFKGRFTLSVDRSKNTLYLQMNSLRAEDTAVYYCARNLGPSFYFDYWGQGTLVTVSS VL: DIQMTQSPSSLSASVGDRVTITCKASQDVSTGVAWYQQKPGKAPKLLIYSASYRYTGVPSRFSGSGSGTDFTLTISSLQPEDFATYYCQQHYTTPPTFGQGTKVEIK
– | 4.35 | 0.00192 | 440000 | Pertuzumab HC x Pertuzumab (Tras.L3) I31V LC (antibody, V domains shown) VH: EVQLVESGGGLVQPGGSLRLSCAASGFTFTDYTMDWVRQAPGKGLEWVADVNPNSGGSIYNQRFKGRFTLSVDRSKNTLYLQMNSLRAEDTAVYYCARNLGPSFYFDYWGQGTLVTVSS VL: DIQMTQSPSSLSASVGDRVTITCKASQDVSVGVAWYQQKPGKAPKLLIYSASYRYTGVPSRFSGSGSGTDFTLTISSLQPEDFATYYCQQHYTTPPTFGQGTKVEIK

Source: patent US20180291110A1 (Hoffmann-La Roche, published 2018)
